Biological target: TRPV1 disordered region polypeptide (UniProt Q8NER1)
Assay: modified sandwich ELISA, fluorescence grade (key: 50000 < x < 100000, Weak binding)

B1: S068 (designed binder)
chain: GDTRPRFLWQLKFECHFFNGTERVRLLERCIYNQEESVRFDSDVGEYRAVTELGRPDAEYWNSQKDLLEQRRAAVDTYCRHNYGVGESFTVQRRVEPKVTVYPSKTQPLQHHNLLVCSVSGFYPGSIEVRWFRNGQEEKAGVVSTGLIQNGDWTFQTLVMLETVPRSGEVYTCQVEHPSVTSPLTVEWRASGGGGSGGGGSGGGGIKEEHVIIQAEFYLNPDQSGEFMFDFDGDEIFHVDMAKKETVWRLEEFGRFASFEAQGALANIAVDKANLEIMTKRSNYTPITNVPPEVTVLTNSPVELREPNVLICFIDKFTPPVVNVTWLRNGKPVTTGVSETVFLPREDHLFRKFHYLPFLPSTEDVYDCRVEHWGLDEPLLKHWEFDAPSGGSHHHHHHLE
Question: For B1, which fluorescent signal (fluorescentsignal) is on record?
Answer: The fluorescent signal (fluorescentsignal) was 50000 to 100000.
